Numbering of substitutions follows the chain as printed. Numbers in names are those of the source.
T1: Cps1 (Mmut-/-;TgMCKMmut)
T1 sequence (Q8C196 39-1500, looked up): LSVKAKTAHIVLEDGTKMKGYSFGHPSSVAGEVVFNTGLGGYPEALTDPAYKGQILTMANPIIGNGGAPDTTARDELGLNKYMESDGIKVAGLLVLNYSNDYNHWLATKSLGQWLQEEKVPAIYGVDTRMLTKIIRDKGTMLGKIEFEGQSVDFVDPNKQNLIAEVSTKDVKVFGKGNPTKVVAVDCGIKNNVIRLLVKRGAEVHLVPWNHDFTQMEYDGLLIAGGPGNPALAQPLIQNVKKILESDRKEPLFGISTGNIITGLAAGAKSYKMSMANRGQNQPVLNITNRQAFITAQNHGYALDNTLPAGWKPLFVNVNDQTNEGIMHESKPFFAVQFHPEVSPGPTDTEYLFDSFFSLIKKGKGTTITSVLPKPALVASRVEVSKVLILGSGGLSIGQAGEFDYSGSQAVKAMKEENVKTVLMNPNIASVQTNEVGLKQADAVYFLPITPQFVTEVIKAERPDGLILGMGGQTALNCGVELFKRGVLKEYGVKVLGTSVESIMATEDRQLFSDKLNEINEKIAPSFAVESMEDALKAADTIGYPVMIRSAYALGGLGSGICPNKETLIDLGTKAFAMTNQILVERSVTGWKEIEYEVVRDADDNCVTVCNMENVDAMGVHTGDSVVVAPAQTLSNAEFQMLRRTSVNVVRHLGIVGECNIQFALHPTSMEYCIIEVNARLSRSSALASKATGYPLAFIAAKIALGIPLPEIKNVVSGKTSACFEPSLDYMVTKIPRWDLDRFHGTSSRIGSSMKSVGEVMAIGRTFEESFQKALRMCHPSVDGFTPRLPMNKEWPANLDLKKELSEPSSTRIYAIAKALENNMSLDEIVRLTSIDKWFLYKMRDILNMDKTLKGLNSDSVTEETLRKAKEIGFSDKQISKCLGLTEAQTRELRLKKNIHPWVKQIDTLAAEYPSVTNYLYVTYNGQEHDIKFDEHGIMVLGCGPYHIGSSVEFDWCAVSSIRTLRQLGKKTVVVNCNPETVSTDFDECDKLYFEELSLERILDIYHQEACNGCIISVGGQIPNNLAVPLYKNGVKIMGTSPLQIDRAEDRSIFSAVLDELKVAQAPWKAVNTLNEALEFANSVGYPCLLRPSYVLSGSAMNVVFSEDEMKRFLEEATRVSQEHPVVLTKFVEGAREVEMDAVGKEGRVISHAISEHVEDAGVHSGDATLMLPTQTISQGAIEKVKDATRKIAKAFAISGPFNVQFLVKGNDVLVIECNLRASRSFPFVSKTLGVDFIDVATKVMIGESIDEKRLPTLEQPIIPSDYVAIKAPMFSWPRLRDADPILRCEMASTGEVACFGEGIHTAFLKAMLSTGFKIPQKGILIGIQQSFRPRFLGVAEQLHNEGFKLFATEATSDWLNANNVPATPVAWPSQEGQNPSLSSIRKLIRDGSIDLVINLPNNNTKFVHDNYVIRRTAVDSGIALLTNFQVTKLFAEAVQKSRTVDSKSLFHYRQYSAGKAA

B1: FLAG-SIRT1 (Addgene, 1791) (protein)
chain: MADEAALALQPGGSPSAAGADREAASSPAGEPLRKRPRRDGPGLERSPGEPGGAAPEREVPAAARGCPGAAAAALWREAEAEAAAAGGEQEAQATAAAGEGDNGPGLQGPSREPPLADNLYDEDDDDEGEEEEEAAAAAIGYRDNLLFGDEIITNGFHSCESDEEDRASHASSSDWTPRPRIGPYTFVQQHLMIGTDPRTILKDLLPETIPPPELDDMTLWQIVINILSEPPKRKKRKDINTIEDAVKLLQECKKIIVLTGAGVSVSCGIPDFRSRDGIYARLAVDFPDLPDPQAMFDIEYFRKDPRPFFKFAKEIYPGQFQPSLCHKFIALSDKEGKLLRNYTQNIDTLEQVAGIQRIIQCHGSFATASCLICKYKVDCEAVRGDIFNQVVPRCPRCPADEPLAIMKPEIVFFGENLPEQFHRAMKYDKDEVDLLIVIGSSLKVRPVALIPSSIPHEVPQILINREPLPHLHFDVELLGDCDVIINELCHRLGGEYAKLCCNPVKLSEITEKPPRTQKELAYLSELPPTPLHVSEDSSSPERTSPPDSSVIVTLLDQAAKSNDDLDVSESKGCMEEKPQEVQTSRNVESIAEQMENPDLKNVGSSTGEKNERTSVAGTVRKCWPNRVAKEQISRRLDGNQYLFLPPNRYIFHGAEVYSDSEDDVLSSSSCGSNSDSGTCQSPSLEEPMEDESEIEEFYNGLEDEPDVPERAGGAGFGTDGDDQEAINEAISVKQEVTDMNYPSNKS
B2: methylmalonylated K4R mutated SIRT5-FLAG (protein)
chain: SSSMADFRKFFAKAKHIVIISGAGVSAESGVPTFRGAGGYWRRWQAQDLATPLAFAHNPSRVWEFYHYRREVMGSREPNAGHRAIAECETRLGKQGRRVVVITQNIDELHRRAGTRNLLEIHGSLFKTRCTSCGVVAENYKSPICPALSGKGAPEPGTQDASIPVEKLPRCEEAGCGGLLRPHVVWFGENLDPAILEEVDRELAHCDLCLVVGTSSVVYPAAMFAPQVAARGVPVAEFNTETTPATNRFRFHFQGPCGTTLPEALACHENETVSEFGGDYKDDDDK
B3: K4R mutated SIRT5-FLAG (protein)
chain: B2 chain
B4: propionylated SIRT5-FLAG (protein)
chain: B2 chain with R43K, R76K, R112K, R116K
B5: SIRT5-FLAG (Addgene, 13816) (protein)
chain: B2 chain with R43K, R76K, R112K, R116K

Legend:
[1] = target: methylmalonylated BSA, P02769
Chain of methylmalonylated BSA, P02769 (P02769 25-607): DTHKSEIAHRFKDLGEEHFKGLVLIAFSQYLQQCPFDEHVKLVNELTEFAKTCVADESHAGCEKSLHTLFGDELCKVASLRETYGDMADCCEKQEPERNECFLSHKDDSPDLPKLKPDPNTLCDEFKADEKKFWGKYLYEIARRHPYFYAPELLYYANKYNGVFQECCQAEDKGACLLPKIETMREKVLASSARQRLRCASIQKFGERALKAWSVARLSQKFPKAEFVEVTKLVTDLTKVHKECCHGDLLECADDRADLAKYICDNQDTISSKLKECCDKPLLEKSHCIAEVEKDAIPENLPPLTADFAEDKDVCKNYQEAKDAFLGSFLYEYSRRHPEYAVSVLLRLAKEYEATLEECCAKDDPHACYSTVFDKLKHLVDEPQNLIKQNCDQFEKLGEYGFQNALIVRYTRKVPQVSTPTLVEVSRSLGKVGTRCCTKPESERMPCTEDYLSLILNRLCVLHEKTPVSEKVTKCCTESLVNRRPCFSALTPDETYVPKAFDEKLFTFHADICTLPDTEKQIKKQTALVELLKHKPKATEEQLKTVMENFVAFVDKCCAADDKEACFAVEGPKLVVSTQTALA

Cps1 (Mmut-/-;TgMCKMmut) = target: T1, Cps1 (Mmut-/-;TgMCKMmut)
[2] = target: propionylated BSA, P02769
Chain of propionylated BSA, P02769 (P02769 25-607): as above

Protein	removal of methylmalonylation from methylmalonylated BSA (in vitro deacylation assay, Western blot) [1]	stated: methylmalonylation of immunoprecipitated Cps1 reduced (AP42053 immunoblot) (Cps1 (Mmut-/-;TgMCKMmut))	depropionylation of propionylated BSA (in vitro deacylation assay, Western blot) [2]
B1	SIRT1 (FIG. 13A) and SIRT5 (FIG. 13B) were the most effective at removing methylmalonylation from the methylmalonylated BSA substrates		
B2	SIRT5 K4R did not exhibit enzymatic inhibition after hyper-methylmalonylation/acylation modifications		
B3	mutant SIRT5 K4R had the ability to remove methylmalonylation from BSA regardless of whether SIRT5 K4R was acylated or not	AP42053 bands at about 150 kDa are faint in the 2 SuperSIRT5-AAV Mmut-/- lanes and clear in the 2 GFP-AAV Mmut-/- lanes, with like Cps1 bands; the FLAG blot of the extracts shows SuperSIRT5-FLAG below 37 kDa only in the SuperSIRT5-AAV lanes	
B4			this activity is impaired when SIRT5 is propionylated
B5			SIRT5 mediates the depropionylation of BSA substrate
